Data reported in patent US20140065111A1 (published 2014).

Biological target: T1, human gp100 peptide on H-2Db (mouse)
T1 peptide: KVPRNQDWL
Experiment: multimer staining
Experimental: Monomers of H2D^b mouse MHC class I molecules loaded with the human gp100 peptide KVPRNQDWL were ordered from the NIH tetramer facility. Monomers were conjugated to APC-Streptavidin (eBiosience) by incubation on ice. Cells were stained with tetramers for 1H in concentrations of 0.178 μg tetramers for 1 million cells in total volume of 50 μl of PBS supplemented with 0.5% BSA and 0.1% of Na-Azide.
After testing the expression and presence of the CD3-TCR complex on the cell surface it is essential to determine the capability of the TCR to bind the MHC-class I molecule presenting the gp100 peptide. In order to test binding capability of the TCR a tetramer staining assay was performed. The tetramer staining assay is designed for testing TCR-MHC binding and was previously described (Ogg and McMichael, 1998). Briefly, the tetramer is a complex of four monomers. Each monomer formed from a mouse MHC-class I molecule, H-2D^b, presenting the human gp100 peptide KVPRNQDWL. The H-2D^b molecule is conjugated to a biotin molecule. The tetramers are assembled by linking four biotin conjugated monomers to one molecule of APC-conjugated Streptavidin. The 293TREx-CD3-Pmel-TCR cells were stained with the tetramers and analyzed by FACS.

B1: Pmel-TCR (TCR, V domains shown)
Valpha: QQKVQQSPESLTVSEGAMASLNCTFSDRSSDNFRWYRQHSGKGLEVLVSIFSDGEKEEGSFTAHLNRASLHVFLHIREPQPSDSALYLCAVNTGNYKYVFGAGTRLKVIA
Vbeta: EAGVTQSPRYAVLQEGQAVSFWCDPISGHDTLYWYQQPRDQGPQLLVYFRDEAVIDNSQLPSDRFSAVRPKGTNSTLKIQSAKQGDTATYLCASSFHRDYNSPLYFAAGTRLTVT
B1: recognises.
